B1: CARM1, purified human protein (enzyme, UniProt Q86X55 1-608, looked up)
chain: MAAAAAAVGPGAGGAGSAVPGGAGPCATVSVFPGARLLTIGDANGEIQRHAEQQALRLEVRAGPDSAGIALYSHEDVCVFKCSVSRETECSRVGKQSFIITLGCNSVLIQFATPNDFCSFYNILKTCRGHTLERSVFSERTEESSAVQYFQFYGYLSQQQNMMQDYVRTGTYQRAILQNHTDFKDKIVLDVGCGSGILSFFAAQAGARKIYAVEASTMAQHAEVLVKSNNLTDRIVVIPGKVEEVSLPEQVDIIISEPMGYMLFNERMLESYLHAKKYLKPSGNMFPTIGDVHLAPFTDEQLYMEQFTKANFWYQPSFHGVDLSALRGAAVDEYFRQPVVDTFDIRILMAKSVKYTVNFLEAKEGDLHRIEIPFKFHMLHSGLVHGLAFWFDVAFIGSIMTVWLSTAPTEPLTHWYQVRCLFQSPLFAKAGDTLSGTCLLIANKRQSYDISIVAQVDQTGSKSSNLLDLKNPFFRYTGTTPSPPPGSHYTSPSENMWNTGSTYNLSSGMAVAGMPTAYDLSSVIASGSSVGHNNLIPLANTGIVNHTHSRMGSIMSTGIVQGSSGAQGSGGGSTSAHYAVNSQFTMGGPAISMASPMSIPTNTMHYGS
B2: Estrogen receptor alpha (ERα), purified human protein (receptor, UniProt P03372 1-595, looked up)
chain: MTMTLHTKASGMALLHQIQGNELEPLNRPQLKIPLERPLGEVYLDSSKPAVYNYPEGAAYEFNAAAAANAQVYGQTGLPYGPGSEAAAFGSNGLGGFPPLNSVSPSPLMLLHPPPQLSPFLQPHGQQVPYYLENEPSGYTVREAGPPAFYRPNSDNRRQGGRERLASTNDKGSMAMESAKETRYCAVCNDYASGYHYGVWSCEGCKAFFKRSIQGHNDYMCPATNQCTIDKNRRKSCQACRLRKCYEVGMMKGGIRKDRRGGRMLKHKRQRDDGEGRGEVGSAGDMRAANLWPSPLMIKRSKKNSLALSLTADQMVSALLDAEPPILYSEYDPTRPFSEASMMGLLTNLADRELVHMINWAKRVPGFVDLTLHDQVHLLECAWLEILMIGLVWRSMEHPGKLLFAPNLLLDRNQGKCVEGMVEIFDMLLATSSRFRMMNLQGEEFVCLKSIILLNSGVYTFLSSTLKSLEEKDHIHRVLDKITDTLIHLMAKAGLTLQQQHQRLAQLLLILSHIRHMSNKGMEHLYSMKCKNVVPLYDLLLEMLDAHRLHAPTSRGGASVEETDQSHLATAGSTSSHSLQKYYITGEAEGFPATV

Columns and labels:
[1] = target: p300, purified recombinant protein from baculovirus (human, UniProt Q09472 1-2414); test: cryo-EM structure
[2] = target: B1; test: cryo-EM structure

p300, purified recombinant protein from baculovirus, sequence (Q09472 whole entry): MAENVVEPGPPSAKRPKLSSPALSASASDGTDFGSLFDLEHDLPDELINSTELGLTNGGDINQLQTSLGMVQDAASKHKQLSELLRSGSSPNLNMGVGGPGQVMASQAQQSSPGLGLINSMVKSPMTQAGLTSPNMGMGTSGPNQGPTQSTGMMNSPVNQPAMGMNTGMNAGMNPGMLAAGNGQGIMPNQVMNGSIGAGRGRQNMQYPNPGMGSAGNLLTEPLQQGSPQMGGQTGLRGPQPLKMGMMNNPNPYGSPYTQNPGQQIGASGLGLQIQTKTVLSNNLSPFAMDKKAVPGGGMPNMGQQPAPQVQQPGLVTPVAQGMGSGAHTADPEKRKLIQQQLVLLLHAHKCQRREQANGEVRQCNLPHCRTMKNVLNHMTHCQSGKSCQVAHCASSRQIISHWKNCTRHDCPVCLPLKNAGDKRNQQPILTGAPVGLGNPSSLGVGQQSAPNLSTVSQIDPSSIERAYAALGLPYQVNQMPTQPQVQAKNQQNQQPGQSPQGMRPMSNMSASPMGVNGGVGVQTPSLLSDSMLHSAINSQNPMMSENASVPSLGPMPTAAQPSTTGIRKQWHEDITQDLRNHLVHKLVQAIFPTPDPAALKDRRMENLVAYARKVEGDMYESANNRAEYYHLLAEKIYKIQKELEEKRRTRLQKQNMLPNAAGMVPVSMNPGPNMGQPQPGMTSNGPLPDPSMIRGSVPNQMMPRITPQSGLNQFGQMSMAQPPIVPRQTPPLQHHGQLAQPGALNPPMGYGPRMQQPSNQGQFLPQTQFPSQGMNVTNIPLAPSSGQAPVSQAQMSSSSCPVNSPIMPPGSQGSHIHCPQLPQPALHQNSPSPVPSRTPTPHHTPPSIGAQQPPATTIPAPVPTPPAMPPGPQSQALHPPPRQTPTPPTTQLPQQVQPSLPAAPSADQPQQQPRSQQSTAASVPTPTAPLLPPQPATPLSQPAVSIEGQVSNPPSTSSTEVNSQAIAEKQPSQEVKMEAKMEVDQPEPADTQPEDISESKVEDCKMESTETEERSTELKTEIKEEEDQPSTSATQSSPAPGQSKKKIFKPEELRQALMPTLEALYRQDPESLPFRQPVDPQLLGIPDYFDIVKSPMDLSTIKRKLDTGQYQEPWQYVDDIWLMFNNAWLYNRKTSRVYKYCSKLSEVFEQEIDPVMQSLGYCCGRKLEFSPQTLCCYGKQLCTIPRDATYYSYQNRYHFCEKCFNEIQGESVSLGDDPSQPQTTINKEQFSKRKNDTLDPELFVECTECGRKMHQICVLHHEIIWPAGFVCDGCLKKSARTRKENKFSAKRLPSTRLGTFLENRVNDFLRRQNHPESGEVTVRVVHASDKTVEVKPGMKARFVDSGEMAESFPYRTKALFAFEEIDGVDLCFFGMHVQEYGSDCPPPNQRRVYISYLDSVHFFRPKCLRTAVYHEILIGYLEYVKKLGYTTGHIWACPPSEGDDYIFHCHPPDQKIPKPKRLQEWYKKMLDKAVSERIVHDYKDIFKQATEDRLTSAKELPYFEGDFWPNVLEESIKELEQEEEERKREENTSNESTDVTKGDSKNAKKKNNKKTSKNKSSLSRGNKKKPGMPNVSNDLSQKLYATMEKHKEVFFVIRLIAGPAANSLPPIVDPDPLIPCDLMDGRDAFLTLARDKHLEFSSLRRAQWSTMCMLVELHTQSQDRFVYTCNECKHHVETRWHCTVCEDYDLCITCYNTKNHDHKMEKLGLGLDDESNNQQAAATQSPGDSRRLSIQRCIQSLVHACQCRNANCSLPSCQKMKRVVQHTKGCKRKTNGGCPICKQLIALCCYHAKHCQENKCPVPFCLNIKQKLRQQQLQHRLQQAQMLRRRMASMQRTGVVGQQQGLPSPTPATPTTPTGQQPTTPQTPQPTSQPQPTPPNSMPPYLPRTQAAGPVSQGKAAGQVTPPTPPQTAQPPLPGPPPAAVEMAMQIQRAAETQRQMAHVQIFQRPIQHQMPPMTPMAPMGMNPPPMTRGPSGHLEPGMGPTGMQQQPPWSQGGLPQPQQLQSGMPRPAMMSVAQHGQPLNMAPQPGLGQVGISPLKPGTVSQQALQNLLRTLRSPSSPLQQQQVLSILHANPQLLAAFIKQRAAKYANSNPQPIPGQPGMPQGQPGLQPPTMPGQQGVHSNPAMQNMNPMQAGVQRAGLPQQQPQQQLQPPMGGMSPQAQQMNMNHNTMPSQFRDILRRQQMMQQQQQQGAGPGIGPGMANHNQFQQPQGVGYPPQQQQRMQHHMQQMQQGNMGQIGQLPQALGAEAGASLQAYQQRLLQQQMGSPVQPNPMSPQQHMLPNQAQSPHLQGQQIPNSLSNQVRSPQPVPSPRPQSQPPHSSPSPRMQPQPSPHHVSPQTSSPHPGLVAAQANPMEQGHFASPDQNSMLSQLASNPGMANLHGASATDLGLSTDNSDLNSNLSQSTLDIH

B1: binds [1].

B2: binds [2]; binds [1].

From PMC5657569 (Molecular cell, 2017)
